# Measured values as given in patent US20110118177.
# Experiments:
# [1] = target: bovine serum albumin (BSA) (Roth, Karlsruhe, Germany) (UniProt P02769)
# [2] = test system: bovine casein (Hammersten-grade) (Merck, Darmstadt, Germany)
# [3] = test system: cyanophycin (multi-L-arginyl-poly-[L-aspartic acid]), Cyanophycin Granule Polypeptide
# Sequence of bovine serum albumin (BSA) (Roth, Karlsruhe, Germany) (P02769 25-607): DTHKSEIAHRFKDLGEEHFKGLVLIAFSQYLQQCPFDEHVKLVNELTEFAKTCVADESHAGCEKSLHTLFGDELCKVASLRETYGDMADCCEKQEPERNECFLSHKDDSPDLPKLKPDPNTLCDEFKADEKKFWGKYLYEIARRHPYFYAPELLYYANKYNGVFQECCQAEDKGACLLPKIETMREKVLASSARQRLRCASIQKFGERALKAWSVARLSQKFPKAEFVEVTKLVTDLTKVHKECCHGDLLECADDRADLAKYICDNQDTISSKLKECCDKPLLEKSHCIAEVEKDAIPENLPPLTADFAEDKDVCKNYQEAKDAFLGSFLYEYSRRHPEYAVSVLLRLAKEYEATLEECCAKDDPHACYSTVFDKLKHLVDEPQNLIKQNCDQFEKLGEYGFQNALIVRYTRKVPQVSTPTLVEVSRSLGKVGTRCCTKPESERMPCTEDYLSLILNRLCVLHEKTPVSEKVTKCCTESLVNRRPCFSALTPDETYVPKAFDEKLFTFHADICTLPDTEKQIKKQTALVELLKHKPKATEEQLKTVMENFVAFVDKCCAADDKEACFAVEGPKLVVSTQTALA
substance,measurement,setting,value
extracellular cyanophycinase (CGPase) CphEal from Pseudomonas alcaligenes strain DIP1,degradation (in comparison to CGP),[1],also BSA was partially degraded (65% in comparison to CGP)
same,degradation (substrate specificity test),[2],Bovine casein and poly(aspartic acid) were minimally affected by the enzymatic activity of the purified CphEal
same,degradation activity (substrate specificity test),[3],showed the highest degradation activity on CGP
